Test results taken from the supplement of paper PMC9170038.

What was measured:
MS2 coat protein [1] = experiment: apparent KD of MS2 coat protein; designed switch direction (-1 OFF switch, 1 ON switch): 1; higher = weaker reporter binding; details: Eterna round: R98
Procedure: (§1)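 RNA-MaP: designed FMN/MS2 RNA switches (84 nt design region) are transcribed on-chip within common flanks and titrated with SNAP-549-labelled MS2 coat protein (about 1-3000 nM) in 100 mM Tris pH 7.5, 80 mM KCl, 4 mM MgCl2, without or with 200 uM FMN. Median apparent KD per design; activation ratio = KD,OFF / KD,ON.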

MS2 coat protein [2] = experiment: apparent KD of MS2 coat protein; higher = weaker reporter binding; details: Eterna round: R101
Procedure: as §1

MS2 coat protein [3] = experiment: apparent KD of MS2 coat protein; designed switch direction (-1 OFF switch, 1 ON switch): -1; higher = weaker reporter binding; details: Eterna round: R98
Procedure: as §1

Row | Sequence | apparent KD of MS2 coat protein (MS2 coat protein [1]; input ligand: FMN 200 uM) | apparent KD of MS2 coat protein (MS2 coat protein [1]; input ligand: none) | apparent KD of MS2 coat protein (MS2 coat protein [2]; input ligand: FMN 200 uM) | apparent KD of MS2 coat protein (MS2 coat protein [2]; input ligand: none) | other results
1 | AAAACAUGAGGAUCACCCAUGUAAAGAUCGGUUAAUAGAAGUGAGGAUAUACUAAAUUUUAGGUAGUAGAAGGCACUGGGUACA [JR_SSNG3_Sub034] | 28.1 nM | 23.1 nM | – | – | –
2 | AAAUAAAAUAUAGGAUAUGGAAACAUGAGGAUCACCCAUGUAAAAUAAGAUAAAUAAUAAUAUAGCCAGAAGGAUAAAAUAUAA [LRO004_SS NG 2] | 34.5 nM | 27.6 nM | – | – | –
3 | AAUAAAACUCAAGGAUAUGACUCCGAAACGGAGUCAGAAGGUGAGGAUCACCCACCUAGCUCAGCGUCGAAAGACGCUGAGCAA [#SharedSequence ExNG1 - 32] (puzzle (switch architecture): Exclusion NG 1) | – | – | 42 nM | 9.01 nM | –
4 | AAUAAACAAUAAAAGAGUCCACGAAACUUUUGAGGAUCACCCAGAAGGGCUGAGGUAAUACCUCAGCAGGAUAUGGACGUGGAC [#SharedSequence IExNG# - 3] (puzzle (switch architecture): Inverted Exclusion NG 3) | – | – | 86.8 nM | 12.4 nM | –
5 | ACUUUAUUUGAGAAGGUGAAGUGGAAACAUGAGGAUCACCCAUGUAAUACGAAGCGUAUUUUUAUCAAGGAUAUCAAAUAAAGA [WHB=ISS-NG2-MS2FAR3 #bad] (puzzle (switch architecture): Inverted Same State NG 2) | – | – | 7.58 nM | 10.7 nM | –
6 | AGACCUGCUCAGAAGGCGUGUGCGAGGCUGGAAACAGCCUCGAAUUAAAAUCUUCGAGGAUCACCCGAGGAUAUGAGCAGGUCA [#SharedSequence - IExNG2: 20] (puzzle (switch architecture): Inverted Exclusion NG 2) | – | – | 59.7 nM | 11.3 nM | –
7 | AGACUCAGAUGGUGCCAGCUUGCACAUGAGGAUCACCCAUGUCAGGAUAUCUUCGCUCCGGGAGAAGAGAAGGGACAAGAAAUU [Anenan] | – | – | – | – | apparent KD of MS2 coat protein (MS2 coat protein [3]; input ligand: FMN 200 uM): 165 nM; apparent KD of MS2 coat protein (MS2 coat protein [3]; input ligand: none): 104 nM
8 | CAAUUGGCACAGAAGGGUGACAUGAGGAUCACCCAUGUAGCGUGGCAUUCAGGAAGAGCCACGCCACAGGAUAUGUGCGGGCAC [Rigeri] (puzzle (switch architecture): Inverted Same State NG 2) | – | – | 31.9 nM | 24.7 nM | –
9 | CCUGCACCUCAAGGAUAUCCAGUCGUUUCGACUGGAGAAGGUGAGGAUCACCCACCUAGCCUGACGUUUGUCAGGCAUGCAGGU [#AddUracilToBrourdLoops 1 - Jieux - Exclusion NG1] (puzzle (switch architecture): Exclusion NG 1) | – | – | 49.5 nM | 27 nM | –
10 | CCUUGAUAAUAUCUUCACAUGAGGAUCACCCAUGUCGCUCGACAGGAUAUAUUUUAUUUGUUUAAGUAGAAGGGUCGCAGAUUC [LRO020_SS NG 3] | 142 nM | 136 nM | – | – | –
11 | CGAGACACUUGAGGAUAUGCUCAGGAUAACUGAGCAGAAGGCAGGGAAACCUGAGGAUCACCCAGGUAACUGGAAAGUCUCGAA [Same State NG1 - A3C, U17G Submission 5B] | 46.3 nM | 144 nM | – | – | –
12 | CUUAGUUUGUAGAAGGGUGACAUGAGGAUCACCCAUGUGCGUCGCCUGAAAGACCAGGGUACGCCACAGGAUAUACAAAGUAAG [Ororzati] (puzzle (switch architecture): Inverted Same State NG 2) | – | – | 88.2 nM | 58 nM | –
13 | GCAGAAGGUGCGGAGGAUCACCCUGUAAGGAUAUGCAUUAGCAAGGAUAUACAGAGGAUCACCCUGUAGAAGGUGCACUAUUCU [pwkr2 ssNG3 DX.4] | 1230 nM | 1450 nM | – | – | –
14 | GCUGCUAUCGCAGGAUAUUACAUGGGAAAUAAUACAUGAGGAUCACCCAUGUAAAAUAUCGUAAAUAAGAAGGGCGAUAGCAGC [Lame State 4 - Jieux - Same State NG 2] | 239 nM | 1210 nM | – | – | –
15 | GCUUGCGACGAAGGAUAUGGGUGCCUAAACACGAGGAUCACCCGUGUACAGGAAGCUAAAUGCUCUCAGAAGGUCGUCGCAGGC [United States 10 - Jieux - Same State NG 2] | 18.4 nM | 36 nM | – | – | –
16 | GGAGACCUCACAGGAUAUGCUGGACUUUGUCCAGCAGAAGGGUGAACAUGAGGAUCACCCAUGUAAAUGGUCUCCAAAUUUAAU [Denovo 55] | 33.4 nM | 389 nM | – | – | –

Row | Sequence | apparent KD of MS2 coat protein (MS2 coat protein [1]; input ligand: FMN 200 uM) | apparent KD of MS2 coat protein (MS2 coat protein [1]; input ligand: none) | apparent KD of MS2 coat protein (MS2 coat protein [2]; input ligand: FMN 200 uM) | apparent KD of MS2 coat protein (MS2 coat protein [2]; input ligand: none) | other results
17 | GGAGGUCACAUUUACAUGAGGAUCACCCAUGUCGAAAGACAUGAGGAUAUGCUACCUAAUUGGUAGCAGAAGGCAUGGACCUCC [Mat - Same State NG 3 - JL Mod - D28] | 226 nM | 287 nM | – | – | –
18 | GGUACUCAAAGAGUACCAAUACGAACAUGAGGAUCACCCAUGUAGGAUAUGCUACUCAAAGAGUAGCAGAAGGACAUGUGCCUU [salish99_ExNG3_020 #endbits investigation] (puzzle (switch architecture): Exclusion NG 3) | – | – | 92.3 nM | 15.1 nM | –
19 | GUACGGAUCAUAGGAUAUCUGCCGGCCGGAGUUAGAGAAGGGUGAUCUAGGAUGCCACAUGAGGAUCACCCAUGUCAACAUCGC [Vemati] | 20.9 nM | 24.2 nM | – | – | –
20 | GUAGCUAUCGGAGGAUAUUCAUACCGGAAACGGACAUGAGGAUCACCCAUGUGGCGAAAGCCUUGGGAGAAGGCCGAUAGCUAC [#DoubleMagnetSystem - jl-sng2-2.23 Eli mod] (puzzle (switch architecture): Same State NG 2) | – | – | 7.49 nM | 215 nM | –
21 | GUGCCUUGGGAGAAGGAUAAUUAAUAAUAAAUAAAAGGAUAUUCAUACCGGAAACGGACAUGAGGAUCACCCAUGUGGCACAAA (puzzle (switch architecture): Inverted Same State NG 1) | – | – | 45.4 nM | 186 nM | –
22 | GUGCGAGCCACAGGAUAUCUACAGAUUUUUUGUAGAGAAGGGUGACCUCGUGCACCACAUGAGGAUCACCCAUGUAACUAGGCG [Bianeren] | 24.5 nM | 82.1 nM | – | – | –
23 | UAUUAAAGGUGAGGAUAUGCACAGGAUCACCGUGUAGAAGGCAUCAGGUAGAAGGUGCAGAGGAUCACCCUGUAAGGAUAUAUC [pwkr2 ssNG1 DX.10] | 191 nM | 1080 nM | – | – | –
24 | UAUUAUAUAUAGAAGGACAUGAGGAUCACCCAUGUCGCCGGGCCCGGGAAACCGGGCCCGGCCAUGUAGGAUAUAUAUAUAGUA [#This is a good prank 9] (puzzle (switch architecture): Inverted Exclusion NG 2) | – | – | 7.72 nM | 5.35 nM | –
25 | UCAGUAGAGUCAGGAUAUACAAAAGGCGGUCCAUACAUGAGGAUCACCCAUGUAGAAGGGACUCUACUGUAAGUCGGAAACGAC [#StaticStemDeletion - Eli x2 4.005] (puzzle (switch architecture): Small Loop Exclusion NG 1) | – | – | 15.6 nM | 329 nM | –
26 | UCGGUUUUCGCAGGAUAUGGAGGAUAUUCCCACAUGAGCAUCAGCCAUGUCUGCAUGGAAGAAGGCCAGAAGGGCGAGAACCGA [United States 1 - Jieux - Same State NG 2] | 11.1 nM | 13.6 nM | – | – | –
27 | UGAUCGCUUGGAGGAUAUCCAACUAUCCUAGUUGGAGAAGGCCAAGCUACAGAGCUAAGCUUGGAAGUCACUUCCGAUCAACAC [pwkr ssNG1 F9.4.2] | 54.9 nM | 33.6 nM | – | – | –
28 | UUAUAAAAUAUAGGAUAUGGAAACAUGAGGAUCACCCAUGUAUGAUAAGAUAAAUUAUGAUAUAGCCAGAAGGAUACAAUAUAU [LRO011_SS NG 2] | 28.9 nM | 28 nM | – | – | –
29 | UUAUAAUUAAGAGGAUAUAUACAACAUGAGGAUCACCCAUGUACCCAUGUAGUAGAAGGCUUAUUUUUAUAUAAUAAUAUAAUU [AstrosLoopssng1#9] (puzzle (switch architecture): Small Loop Same State NG 1) | – | – | 40 nM | 148 nM | –
30 | UUAUUAUGUGUAGGAUAUGCGUAUUAUUAUUAUGCAGAAGGACAUGAGGAUCACCCAUGUAUAUUAUUAUUAUAUAUUAUAUAU (puzzle (switch architecture): Exclusion NG 1) | – | – | 19.1 nM | 14.7 nM | –
31 | UUUUUAUUUAUAGGAUAUGGAGACAUGAGGAUCACCCAUGUAUGAUAAGAUAAAUUAUGAUGUGGCCAGAAGGAUAUUAUUUUU [LRO018_SS NG 2] | 85.5 nM | 76.4 nM | – | – | –
